We go through 2 molecules from US20240360233A1 (University of Texas, published 2024).

Test [1] addresses T1, TSLPR on TSLPR-expressing REH cells (UniProt Q9HC73 23-371).
T1 sequence (looked up): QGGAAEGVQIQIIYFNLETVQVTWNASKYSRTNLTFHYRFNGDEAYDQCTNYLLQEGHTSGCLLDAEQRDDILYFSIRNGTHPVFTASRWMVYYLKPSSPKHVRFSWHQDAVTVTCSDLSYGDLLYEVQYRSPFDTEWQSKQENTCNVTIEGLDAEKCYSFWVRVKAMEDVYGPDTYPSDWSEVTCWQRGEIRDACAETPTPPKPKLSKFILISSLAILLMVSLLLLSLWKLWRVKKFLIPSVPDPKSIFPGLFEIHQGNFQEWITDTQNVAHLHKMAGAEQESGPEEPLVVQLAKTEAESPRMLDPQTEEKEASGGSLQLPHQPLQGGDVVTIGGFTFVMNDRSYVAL
Kind of test: cell-based or functional assay.

Test [2] deals with T2, his-tagged TSLPR (TSLPR-HIS) (UniProt Q9HC73 23-231, limits assumed).
T2 construct: Soluble protein used in the ForteBio assay; not shown: His tag
T2 sequence (looked up): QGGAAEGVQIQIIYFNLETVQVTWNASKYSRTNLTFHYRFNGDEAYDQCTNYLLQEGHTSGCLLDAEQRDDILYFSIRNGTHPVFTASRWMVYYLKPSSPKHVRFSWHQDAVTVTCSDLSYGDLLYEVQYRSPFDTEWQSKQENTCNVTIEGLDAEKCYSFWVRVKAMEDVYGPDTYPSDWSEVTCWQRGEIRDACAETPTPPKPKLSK
Briefly: BLI (ForteBio AHQ sensor), antibody captured, TSLPR-HIS in solution. On the procedure: TSLPR antibody clones whose VH and VL sequences are disclosed in Tables 9 and 10 were bound to the AHQ sensor and his-tagged TSLPR (TSLPR-HIS) was provided in solution. […] The anti-TSLPR antibodies were serially diluted with an HBS-EP solution (GE Healthcare), and 100 μL of the solution was added to the flow path at a flow rate of […].

The target of test [3] is T3, human TSLPR protein (human, UniProt Q9HC73 23-231, limits assumed).
T3 sequence (looked up): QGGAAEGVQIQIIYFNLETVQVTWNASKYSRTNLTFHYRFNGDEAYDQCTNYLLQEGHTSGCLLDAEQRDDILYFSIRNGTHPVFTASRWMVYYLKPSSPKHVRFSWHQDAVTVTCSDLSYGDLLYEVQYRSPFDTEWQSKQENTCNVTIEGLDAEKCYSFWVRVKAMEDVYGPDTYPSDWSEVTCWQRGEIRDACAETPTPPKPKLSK
Kind of test: SPR (BIAcore).

In test [4] the target is cynomolgus TSLPR (cynomolgus). Kind of test: SPR (BIAcore).

B1: TSLPR antibody clone 1A9 (antibody, V domains shown)
VH: QVQLQESGPGLVKPSETLSLTCAVSGYSISSGYYWGWIRQPPGKGLEWIGRIYHSGTTSYNPSLKRRVTISVDTSKNQFSLKLSSVTATDTAVYYCARNWGGNWFDPWGQGTLVTVSS
VL: EIVLTQSPATLSLSPGERATLSCRASQSVSSYLAWYQQKPGQAPRLLIYDASNRATGIPARFSGSGSGTDFTLTISSLEPEDFAVYYCQQRSTWLTFGGGTKVDIKR
notes: also called TSLPR-4; TSLPR-004
In the case of B1, in test [1], the “EC50 (Promega ADCC reporter assay, RLU)” value was found to be 0.03 nM. For the same molecule, in test [2], the Kd stood at 4.45 nM, the koff turned out to be 0.000769 s⁻¹ and the association rate constant (kon) is 173000 M⁻¹ s⁻¹.

B2: TSLPR antibody clone 1B7 (antibody, V domains shown)
VH: QVQLQESGPGLVKPSGTLSLTCAVSGGSISSSNWWSWVRQPPGKGLEWIGEIYHGGTTNNNPSLKSRVTISVDKSKSQFSLKLSSVTAADTAVYYCARHRYSNGLDYWGQGTLVTVSS
VL: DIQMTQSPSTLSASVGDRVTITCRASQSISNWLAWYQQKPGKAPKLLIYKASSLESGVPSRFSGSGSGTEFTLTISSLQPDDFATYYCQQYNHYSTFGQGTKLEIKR
notes: also called TSLPR-6; TSLPR-006
On to B2, for which, in test [1], the “EC50 (Promega ADCC reporter assay, RLU)” value was 0.08 nM. In test [2], this molecule gave a Kd of 2.82 nM, a koff of 0.00079 s⁻¹ and a kon of 280000 M⁻¹ s⁻¹. The molecule further showed a Kd in test [3] of around 2.87 nM. In addition, in test [4], the Kd was around 2.03 nM.
